B1: Fragment M1–25 of GvpM with NGFP fused at the C-terminus [Halobacterium salinarum] / GvpL with CGFP fused at the C-terminus [Halobacterium salinarum] (parent complex)
chain 1: MEPTKDETHAIVEFVDVLLRDGAVI
chain 2: MTDHRPSPEEEQTTANEERTVSNGRYLYCVVDTTSSESATLSTTGVDDNPVYVVEADGVGAVVHDCETVYETEDLEQVKRWLVTHQQVVDAASDAFGTPLPMRFDTVLEGGDASIERWLEDHYEGFRDELASFAGVWEYRINLLWDSAPFEETIADRDDRLRELRQRQQQSGAGKKFLLEKQSDQRLQELKRERRTELADQLKEAITPVVNDLTEQDTNTPLQDEHSSIEKEQIVRFAVLADEDDETALGDRLDTIVEHEGVEIRFTGPWPPYTFAPDIGK
B2: GvpJ wild type with CGFP fused at the C-terminus [Halobacterium salinarum] / GvpL with NGFP fused at the N-terminus [Halobacterium salinarum] (parent complex)
chain 1: MSDPKPTRSQGDLAEMLEMLLDKGVVVNADIAVSVGDTELLGIELRAAIASFETAAEYGLEFPTGTDMERVESAANISPDQSDPASETQSETESTNPLSDDSTPTASTSAEETK
chain 2: B1 chain 2
B3: GvpM wild type, entire protein, with CGFP fused at the C-terminus [Halobacterium salinarum] / GvpL with NGFP fused at the N-terminus [Halobacterium salinarum] (parent complex)
chain 1: MEPTKDETHAIVEFVDVLLRDGAVIQADVIVTVADIPLIGISLRAAIAGMTTMTEYGLFEEWDAAHRQQSEAFTTSPTADRRED
chain 2: B1 chain 2

Variants of: B1
Test: split-GFP; Hfx. volcanii transformants; parent: 65; read off a plot

Row | response | Variant
1 | ~100 | chain 1 V15A
2 | ~86 | chain 1 G22A
3 | ~80 | chain 1 E7K
4 | ~67 | chain 1 E2A
5 | ~110 | chain 1 T8A
6 | ~61 | chain 1 E13A
7 | ~57 | chain 1 F14A
8 | ~94 | chain 1 A23D
9 | ~110 | chain 1 I11D
10 | ~84 | chain 1 I11A
11 | ~70 | chain 1 T4A
12 | ~46 | chain 1 D16A
13 | ~62 | chain 1 H9A
14 | ~75 | chain 1 L18A
15 | ~74 | chain 1 V24A
16 | ~58 | chain 1 A10D
17 | ~84 | chain 1 P3A
18 | ~81 | chain 1 L19A
19 | ~54 | chain 1 R20A
20 | ~74 | chain 1 V17A
21 | ~58 | chain 1 V12Y
22 | ~67 | chain 1 D21A

Variants of: B2
Test: split-GFP; Hfx. volcanii transformants; parent: 13; read off a plot

Row | response | Variant
23 | ~17 | chain 1 V33D
24 | ~18 | chain 1 V33A
25 | ~9.5 | chain 1 E15A
26 | ~14 | chain 1 L20I
27 | ~14 | chain 1 D22N
28 | ~17 | chain 1 A50D
29 | ~25 | chain 1 A29D
30 | ~9.2 | chain 1 E18R
31 | ~9 | chain 1 E18Q
32 | ~9.5 | chain 1 E18A
33 | ~14 | chain 1 E18D
34 | ~18 | chain 1 I49A
35 | ~7 | chain 1 M19E
36 | ~7.2 | chain 1 G24A
37 | ~14 | chain 1 K23R
38 | ~14 | chain 1 K23A
39 | ~22 | chain 1 A47D
40 | ~9.3 | chain 1 M16A
41 | ~9 | chain 1 L21A
42 | ~14 | chain 1 L17A
43 | ~14 | chain 1 E69A
44 | ~7.8 | chain 1 Y58E
45 | ~17 | chain 1 S51A

Variants of: B3
Test: split-GFP; Hfx. volcanii transformants; parent: 7.8; read off a plot

Row | response | Variant
46 | ~18 | chain 1 A45E
47 | ~6.4 | chain 1 V15E
48 | ~7.1 | chain 1 I47A
49 | ~9.5 | chain 1 G22D
50 | ~9.7 | chain 1 A23D
51 | ~5.6 | chain 1 A46E

— PMC8716928 (2021)
